Measured values: US20180244769A1 (Ablynx, published 2018)

What was measured:
[1] = biological target: human P2X7 (hP2X7) (human) (UniProt Q99572); experiment: cell-based or functional assay
[2] = biological target: human P2X7 (hP2X7) (human) (UniProt Q99572); experiment: flow cytometry on human peripheral blood lymphocytes of a single donor, CD4+ cells
[3] = biological target: human P2X7 (hP2X7) (human) (UniProt Q99572); experiment: flow cytometry on human peripheral blood lymphocytes of a single donor, CD4- cells
[4] = biological target: human P2X7 (hP2X7) (human) (UniProt Q99572); experiment: flow cytometry, HEK cells co-transfected with GFP and hP2X7, bound antibody detected with Alexa647 anti-mouse IgG; other quadrants: UL 0.5, LL 9, LR 19
rat P2X7 (rP2X7) = biological target: T1, rat P2X7 (rP2X7) (Rattus norvegicus, UniProt Q64663 1-595); experiment: flow cytometry, HEK cells co-transfected with GFP and rP2X7, bound antibody detected with Alexa647 anti-mouse IgG; other quadrants: UL 1, LL 7.5, LR 21
T1 sequence: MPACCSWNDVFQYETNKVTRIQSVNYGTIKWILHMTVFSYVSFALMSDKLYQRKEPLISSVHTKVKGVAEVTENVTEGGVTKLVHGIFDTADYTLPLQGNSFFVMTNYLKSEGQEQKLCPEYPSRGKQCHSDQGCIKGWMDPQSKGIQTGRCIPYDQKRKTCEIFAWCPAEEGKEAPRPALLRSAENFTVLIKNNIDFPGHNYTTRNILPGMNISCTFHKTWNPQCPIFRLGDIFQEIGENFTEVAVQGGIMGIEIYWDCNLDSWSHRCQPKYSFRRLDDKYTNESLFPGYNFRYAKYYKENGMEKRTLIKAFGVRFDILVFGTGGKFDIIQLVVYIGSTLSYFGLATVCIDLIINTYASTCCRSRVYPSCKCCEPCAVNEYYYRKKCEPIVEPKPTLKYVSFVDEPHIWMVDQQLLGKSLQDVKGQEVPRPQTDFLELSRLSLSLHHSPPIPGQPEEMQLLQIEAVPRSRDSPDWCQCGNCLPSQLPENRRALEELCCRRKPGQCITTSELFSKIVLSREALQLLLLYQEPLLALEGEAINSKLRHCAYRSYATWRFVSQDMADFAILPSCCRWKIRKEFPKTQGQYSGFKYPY

mouse P2X7 (mP2X7) = biological target: T2, mouse P2X7 (mP2X7) (mus musculus, UniProt Q9Z1M0 1-595); experiment: flow cytometry, HEK cells co-transfected with GFP and mP2X7, bound antibody detected with Alexa647 anti-mouse IgG; other quadrants: UL 64, LL 26, LR 5.5
T2 construct: Also used here for endogenous P2X7 on Yac-1 cells, primary mouse lymphocytes and macrophages
T2 chain: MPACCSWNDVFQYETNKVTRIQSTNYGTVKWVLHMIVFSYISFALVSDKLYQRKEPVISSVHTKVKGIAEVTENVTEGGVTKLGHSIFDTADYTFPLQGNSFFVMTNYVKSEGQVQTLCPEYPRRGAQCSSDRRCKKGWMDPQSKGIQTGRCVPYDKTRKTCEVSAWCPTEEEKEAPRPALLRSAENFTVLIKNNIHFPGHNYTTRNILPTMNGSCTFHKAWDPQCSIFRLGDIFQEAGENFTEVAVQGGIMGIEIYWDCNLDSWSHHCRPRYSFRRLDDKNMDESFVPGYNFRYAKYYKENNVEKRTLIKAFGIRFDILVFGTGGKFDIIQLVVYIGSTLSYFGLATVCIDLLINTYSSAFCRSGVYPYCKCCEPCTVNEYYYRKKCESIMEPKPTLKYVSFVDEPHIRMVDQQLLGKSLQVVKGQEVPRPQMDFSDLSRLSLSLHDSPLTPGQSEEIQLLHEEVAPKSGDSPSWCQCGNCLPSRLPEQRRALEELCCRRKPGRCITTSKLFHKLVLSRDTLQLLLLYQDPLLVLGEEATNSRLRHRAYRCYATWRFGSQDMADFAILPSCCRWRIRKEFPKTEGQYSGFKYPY

[5] = biological target: human P2X7 (hP2X7) (human) (UniProt Q99572); experiment: flow cytometry of whole blood of one donor, gate on lymphocytes, Alexa647 conjugate with anti-CD4; unblocked = pre-incubated with control 1067-Fc; lower quadrants 32 and 33
[6] = biological target: human P2X7 (hP2X7) (human) (UniProt Q99572); experiment: flow cytometry of whole blood of one donor, gate on lymphocytes, Alexa647 conjugate with anti-CD4; blocked = pre-incubated with excess unlabelled Nb-Fc (legend: 3 ug each of 1c113-Fc and 3c23-Fc); lower quadrants 43 and 55

Chain of human P2X7 (hP2X7) (human) (Q99572 whole entry): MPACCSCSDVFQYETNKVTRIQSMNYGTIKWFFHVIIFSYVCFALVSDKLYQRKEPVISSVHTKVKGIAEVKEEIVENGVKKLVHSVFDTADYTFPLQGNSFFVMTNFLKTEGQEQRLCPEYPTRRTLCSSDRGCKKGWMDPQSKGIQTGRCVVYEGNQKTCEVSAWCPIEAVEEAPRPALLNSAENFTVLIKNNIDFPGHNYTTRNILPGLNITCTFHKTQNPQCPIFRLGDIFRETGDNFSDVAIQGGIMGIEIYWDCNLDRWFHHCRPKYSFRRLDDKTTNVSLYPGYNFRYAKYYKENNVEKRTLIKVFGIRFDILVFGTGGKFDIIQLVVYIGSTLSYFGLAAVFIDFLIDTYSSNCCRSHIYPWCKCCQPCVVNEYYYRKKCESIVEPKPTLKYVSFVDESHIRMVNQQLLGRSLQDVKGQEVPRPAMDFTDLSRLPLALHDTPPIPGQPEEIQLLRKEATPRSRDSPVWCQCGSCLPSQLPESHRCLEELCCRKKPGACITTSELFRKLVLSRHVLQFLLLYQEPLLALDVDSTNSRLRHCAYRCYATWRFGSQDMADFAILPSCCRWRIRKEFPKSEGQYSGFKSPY

“mAb L4 (anti-hP2X7 mouse monoclonal antibody)” was tested, and the IC50 [nM], blockade of L-selectin (CD62L) shedding in transfected HEK cells, 4 mM ATP [1] was > 19 nM, the IC50 [ng/ml], blockade of L-selectin (CD62L) shedding in transfected HEK cells, 4 mM ATP [1] was > 2800 ng/mL and the MFI [2] was 11. For the same substance, the MFI [3] was 10, the % of cells in the GFP+ / anti-mIgG A647+ quadrant (upper right) [4] was 72% and the % of cells in the GFP+ / anti-mIgG A647+ quadrant (upper right) (rat P2X7 (rP2X7)) was 70%. The % of cells in the GFP+ / anti-mIgG A647+ quadrant (upper right) (mouse P2X7 (mP2X7)) was 4.8%, the % of lymphocytes in the CD4+ / AF647+ quadrant (upper right), unblocked [5] was 22% and the % of lymphocytes in the CD4- / AF647+ quadrant (upper left), unblocked [5] was 13%. It also gave a % of lymphocytes in the CD4+ / AF647+ quadrant (upper right), blocked [6] of 0.6% and a % of lymphocytes in the CD4- / AF647+ quadrant (upper left), blocked [6] of 0.9%.
